From the supplement of paper PMC9112550, “Optimization of the antimicrobial peptide Bac7 by deep mutational scanning” (BMC Biology, 2022)

System: Escherichia coli TOP10
Test: shrunken log2 fold change of peptide-encoding DNA abundance (4.5 h post-induction vs induction); higher = less antimicrobial activity (less host growth inhibition)
Conditions: time post-induction: 4.5 h; library: site-saturation at positions 5, 18, 19, 20
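Also: peptides expressed intracellularly from a pBAD plasmid library in pooled LB shake-flask culture, induced with 0.3% L-arabinose, DNA abundance read by NGS, three biological replicates, DESeq2 with apeglm shrinkage.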

| Sequence | shrunken log2 fold change |
| --- | --- |
| RRIRYRPPRLPRPRPRPWAEPRP | 0.0276 |
| RRIRWRPPRLPRPRPRPTAEPRP | 1.76 |
| RRIRARPPRLPRPRPRPYEKPRP | -0.201 |
| RRIRKRPPRLPRPRPRPIVIPRP | -0.0175 |
| RRIRFRPPRLPRPRPRPLMQPRP | -0.0117 |
| RRIRCRPPRLPRPRPRPLTLPRP | -0.582 |
| RRIRTRPPRLPRPRPRPLLDPRP | 0.214 |
| RRIRCRPPRLPRPRPRPEMWPRP | 0.166 |
| RRIRRRPPRLPRPRPRPDWDPRP | -0.0829 |
| RRIRTRPPRLPRPRPRPKERPRP | -0.0679 |
| RRIRQRPPRLPRPRPRPWVSPRP | -0.0689 |
| RRIRFRPPRLPRPRPRPQINPRP | -0.239 |
| RRIRCRPPRLPRPRPRPKLDPRP | 0.125 |
| RRIRCRPPRLPRPRPRPHFSPRP | -0.473 |
| RRIRTRPPRLPRPRPRPSTEPRP | -0.456 |
| RRIRHRPPRLPRPRPRPMYKPRP | -0.138 |
| RRIRVRPPRLPRPRPRPSQGPRP | -0.371 |
| RRIRQRPPRLPRPRPRPIPVPRP | -0.221 |
| RRIRARPPRLPRPRPRPWHDPRP | -0.00134 |
| RRIRVRPPRLPRPRPRPVTLPRP | -0.227 |

| Sequence | shrunken log2 fold change |
| --- | --- |
| RRIRDRPPRLPRPRPRPWSPPRP | 0.127 |
| RRIRSRPPRLPRPRPRPQNRPRP | -0.106 |
| RRIRARPPRLPRPRPRPWGSPRP | 0.115 |
| RRIRHRPPRLPRPRPRPGCGPRP | 0.417 |
| RRIRRRPPRLPRPRPRPARCPRP | 0.42 |
| RRIRERPPRLPRPRPRPNQAPRP | -0.0316 |
| RRIRPRPPRLPRPRPRPVYPPRP | 3.41 |
| RRIRIRPPRLPRPRPRPCTTPRP | -0.543 |
| RRIRDRPPRLPRPRPRPGEHPRP | 0.0372 |
| RRIRSRPPRLPRPRPRPKDAPRP | 0.22 |
| RRIRDRPPRLPRPRPRPNNPPRP | -0.357 |
| RRIRPRPPRLPRPRPRPNDCPRP | 0.0214 |
| RRIRWRPPRLPRPRPRPRQLPRP | -0.0051 |
| RRIRYRPPRLPRPRPRPPTWPRP | -0.0624 |
| RRIRWRPPRLPRPRPRPDMFPRP | -0.0661 |
| RRIRMRPPRLPRPRPRPPQYPRP | 0.465 |
| RRIRDRPPRLPRPRPRPTPGPRP | 0.468 |
| RRIRDRPPRLPRPRPRPSYDPRP | -0.175 |
| RRIRNRPPRLPRPRPRPKDWPRP | 0.0256 |
| RRIRLRPPRLPRPRPRPGYRPRP | -0.16 |

| Sequence | shrunken log2 fold change |
| --- | --- |
| RRIRTRPPRLPRPRPRPFCGPRP | -0.0697 |
| RRIRERPPRLPRPRPRPERSPRP | 0.149 |
| RRIRPRPPRLPRPRPRPWIRPRP | -0.175 |
| RRIRERPPRLPRPRPRPGWYPRP | -0.0987 |
| RRIRARPPRLPRPRPRPGEPPRP | 0.601 |
| RRIRKRPPRLPRPRPRPVPAPRP | 0.648 |
| RRIRQRPPRLPRPRPRPAADPRP | 0.0593 |
| RRIRNRPPRLPRPRPRPVCIPRP | -0.215 |
| RRIRQRPPRLPRPRPRPKYGPRP | -0.3 |
| RRIRKRPPRLPRPRPRPHFSPRP | -0.0531 |
| RRIRPRPPRLPRPRPRPFCAPRP | 0.0563 |
| RRIRERPPRLPRPRPRPFFKPRP | -0.37 |
| RRIRYRPPRLPRPRPRPSPNPRP | -1.34 |
| RRIRSRPPRLPRPRPRPYPTPRP | -0.234 |
| RRIRDRPPRLPRPRPRPMAHPRP | -0.00211 |
| RRIRVRPPRLPRPRPRPPILPRP | -0.313 |
| RRIRNRPPRLPRPRPRPWVNPRP | -0.00663 |
| RRIRGRPPRLPRPRPRPFDFPRP | 0.26 |
| RRIRYRPPRLPRPRPRPIWWPRP | 0.136 |
| RRIRIRPPRLPRPRPRPCLDPRP | -0.0653 |
